These results are taken from the supplement of paper PMC9428881.

The nature of the data set: background-corrected fluorescence of 3'-dye-labeled ssDNA relative to brightest sequence (3'-GCGCG) (fraction); higher = brighter dye fluorescence (less quenching). The procedure:
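Single-stranded DNA is synthesized in situ on glass microarrays by 5'->3' photolithographic synthesis, with a Cy3 or Cy5 phosphoramidite coupled at the 3' end next to all 1024 permuted pentamers P1-P5. The construct is 5'-T5-(ACGT minus P5..P1 trinucleotides)-T15-P5P4P3P2P1-dye-3'; the dye is a 3' terminal modification, not part of the sequence. Arrays were scanned at 532 nm (Cy3) or 635 nm (Cy5), background from unlabeled oligos was subtracted, and values are averaged over 10 replicate features per array and at least 3 independent syntheses.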

± gives the standard error.

As to “TTTTTGCATGATGAGCATGCTTTTTTTTTTTTTTTTCCTA [ATCCT]”, the background-corrected fluorescence by setting is: (dye: Cy3 (3' terminal)) 0.455 ± 0.019; (dye: Cy5 (3' terminal)) 0.355 ± 0.019.

As for “TTTTTTGATCAGCAGCATGATTTTTTTTTTTTTTTCGTTC [CTTGC]”, the background-corrected fluorescence runs as follows: (dye: Cy3 (3' terminal)) 0.417 ± 0.036; (dye: Cy5 (3' terminal)) 0.321 ± 0.028.

In the case of “TTTTTTCATGATGATGCTCATTTTTTTTTTTTTTTGCCAG [GACCG]”, the background-corrected fluorescence reads like this: (dye: Cy3 (3' terminal)) 0.519 ± 0.015; (dye: Cy5 (3' terminal)) 0.384 ± 0.031.

As to “TTTTTTGCGCAGCATGATGCTTTTTTTTTTTTTTTATTCA [ACTTA]”, the background-corrected fluorescence came out at 0.484 ± 0.035 (dye: Cy3 (3' terminal)) and 0.351 ± 0.021 (dye: Cy5 (3' terminal)).

Consider “TTTTTGCAGCATGAGCATGATTTTTTTTTTTTTTTTTCTC [CTCTT]”, for which the background-corrected fluorescence runs as follows: (dye: Cy3 (3' terminal)) 0.389 ± 0.03; (dye: Cy5 (3' terminal)) 0.272 ± 0.035.

For “TTTTTTGAGCATCATGCTGATTTTTTTTTTTTTTTCTGAC [CAGTC]”, the background-corrected fluorescence is, setting by setting: (dye: Cy3 (3' terminal)) 0.465 ± 0.024; (dye: Cy5 (3' terminal)) 0.354 ± 0.033.

In the case of “TTTTTTGATGATGCTGATGCTTTTTTTTTTTTTTTCCACA [ACACC]”, the background-corrected fluorescence reads like this: (dye: Cy3 (3' terminal)) 0.472 ± 0.027; (dye: Cy5 (3' terminal)) 0.375 ± 0.055.

Consider “TTTTTTGCGCATGCTCATGATTTTTTTTTTTTTTTATAGC [CGATA]”, for which the background-corrected fluorescence came to 0.519 ± 0.027 (dye: Cy3 (3' terminal)) and 0.407 ± 0.031 (dye: Cy5 (3' terminal)).

Consider “TTTTTGCATGATGCTGATGATTTTTTTTTTTTTTTTCACC [CCACT]”, for which the background-corrected fluorescence by setting is: (dye: Cy3 (3' terminal)) 0.382 ± 0.011; (dye: Cy5 (3' terminal)) 0.265 ± 0.016.

For “TTTTTTGCTGATGCTGCGCATTTTTTTTTTTTTTTACAAT [TAACA]”, the background-corrected fluorescence by setting is: (dye: Cy3 (3' terminal)) 0.525 ± 0.028; (dye: Cy5 (3' terminal)) 0.396 ± 0.021.

“TTTTTTGCGCATGATGCTCATTTTTTTTTTTTTTTATCAG [GACTA]”: the background-corrected fluorescence (dye: Cy3 (3' terminal)) was determined as 0.56 ± 0.045 and the background-corrected fluorescence (dye: Cy5 (3' terminal)) turned out to be 0.411 ± 0.03.

Regarding “TTTTTTGCTGCGCATGATGATTTTTTTTTTTTTTTAATCC [CCTAA]”, the background-corrected fluorescence came to 0.376 ± 0.013 (dye: Cy3 (3' terminal)) and 0.29 ± 0.018 (dye: Cy5 (3' terminal)).

“TTTTTGCATGCGCATGCTGATTTTTTTTTTTTTTTTATAC [CATAT]”: the background-corrected fluorescence came out at 0.449 ± 0.022 (dye: Cy3 (3' terminal)) and 0.333 ± 0.035 (dye: Cy5 (3' terminal)).

“TTTTTTGAGCATGCTGCTCATTTTTTTTTTTTTTTCTAAG [GAATC]” registered a background-corrected fluorescence (dye: Cy3 (3' terminal)) of 0.542 ± 0.044 and a background-corrected fluorescence (dye: Cy5 (3' terminal)) of 0.427 ± 0.031.

On to “TTTTTGCAGCATGCTGCTGATTTTTTTTTTTTTTTTTAAC [CAATT]”, for which the background-corrected fluorescence turned out to be 0.408 ± 0.011 (dye: Cy3 (3' terminal)) and 0.314 ± 0.026 (dye: Cy5 (3' terminal)).

“TTTTTTGAGCATGATGCGCATTTTTTTTTTTTTTTCTCAT [TACTC]” registered a background-corrected fluorescence (dye: Cy3 (3' terminal)) of 0.513 ± 0.018 and a background-corrected fluorescence (dye: Cy5 (3' terminal)) of 0.378 ± 0.019.

For “TTTTTGCATCATCAGCAGCATTTTTTTTTTTTTTTTGGTT”, the background-corrected fluorescence reads like this: (dye: Cy3 (3' terminal)) 0.624 ± 0.019; (dye: Cy5 (3' terminal)) 0.477 ± 0.037.

For the sequence “TTTTTGCATGCGCATGCTCATTTTTTTTTTTTTTTTATAG [GATAT]”, the background-corrected fluorescence amounted to 0.548 ± 0.02 (dye: Cy3 (3' terminal)) and 0.418 ± 0.032 (dye: Cy5 (3' terminal)).

For the sequence “TTTTTTGCTGCTGCTGCTCATTTTTTTTTTTTTTTAAAAG [GAAAA]”, the background-corrected fluorescence runs as follows: (dye: Cy3 (3' terminal)) 0.576 ± 0.021; (dye: Cy5 (3' terminal)) 0.403 ± 0.03.

On to “TTTTTGCATCATGATGCTGCTTTTTTTTTTTTTTTTGCAA [AACGT]”, for which the background-corrected fluorescence worked out at 0.594 ± 0.0062 (dye: Cy3 (3' terminal)) and 0.463 ± 0.026 (dye: Cy5 (3' terminal)).

In the case of “TTTTTTGCTGCTCATGCGCATTTTTTTTTTTTTTTAAGAT [TAGAA]”, the background-corrected fluorescence reads like this: (dye: Cy3 (3' terminal)) 0.564 ± 0.024; (dye: Cy5 (3' terminal)) 0.496 ± 0.081.

“TTTTTGCATGCTCATGATCATTTTTTTTTTTTTTTTAGCG [GCGAT]” yielded a background-corrected fluorescence (dye: Cy3 (3' terminal)) of 0.658 ± 0.008 and a background-corrected fluorescence (dye: Cy5 (3' terminal)) of 0.494 ± 0.055.

On to “TTTTTGCAGCATCATCATGATTTTTTTTTTTTTTTTTGGC [CGGTT]”, for which the background-corrected fluorescence reads like this: (dye: Cy3 (3' terminal)) 0.556 ± 0.017; (dye: Cy5 (3' terminal)) 0.457 ± 0.023.

“TTTTTTGCTGCTGATGCTGCTTTTTTTTTTTTTTTAACAA”: the background-corrected fluorescence (dye: Cy3 (3' terminal)) worked out at 0.527 ± 0.024 and the background-corrected fluorescence (dye: Cy5 (3' terminal)) stood at 0.419 ± 0.024.

“TTTTTTCATCATGATGCTGCTTTTTTTTTTTTTTTGGCAA [AACGG]”: the background-corrected fluorescence came out at 0.5847 ± 0.005 (dye: Cy3 (3' terminal)) and 0.504 ± 0.041 (dye: Cy5 (3' terminal)).

On to “TTTTTTGATGAGCAGCATGCTTTTTTTTTTTTTTTCCTTA [ATTCC]”, for which the background-corrected fluorescence turned out to be 0.513 ± 0.023 (dye: Cy3 (3' terminal)) and 0.369 ± 0.029 (dye: Cy5 (3' terminal)).

“TTTTTTGATGATGATGCTGATTTTTTTTTTTTTTTCCCAC [CACCC]”: the background-corrected fluorescence (dye: Cy3 (3' terminal)) came out at 0.373 ± 0.022 and the background-corrected fluorescence (dye: Cy5 (3' terminal)) worked out at 0.294 ± 0.044.
